IntAct's records for PubMed 21828050

B1: Kelch-like protein 7 (Homo sapiens), Q8IXQ5 (parent)
chain: MAASGVEKSSKKKTEKKLAAREEAKLLAGFMGVMNNMRKQKTLCDVILMVQERKIPAHRVVLAAASHFFNLMFTTNMLESKSFEVELKDAEPDIIEQLVEFAYTARISVNSNNVQSLLDAANQYQIEPVKKMCVDFLKEQVDASNCLGISVLAECLDCPELKATADDFIHQHFTEVYKTDEFLQLDVKRVTHLLNQDTLTVRAEDQVYDAAVRWLKYDEPNRQPFMVDILAKVRFPLISKNFLSKTVQAEPLIQDNPECLKMVISGMRYHLLSPEDREELVDGTRPRRKKHDYRIALFGGSQPQSCRYFNPKDYSWTDIRCPFEKRRDAACVFWDNVVYILGGSQLFPIKRMDCYNVVKDSWYSKLGPPTPRDSLAACAAEGKIYTSGGSEVGNSALYLFECYDTRTESWHTKPSMLTQRCSHGMVEANGLIYVCGGSLGNNVSGRVLNSCEVYDPATETWTELCPMIEARKNHGLVFVKDKIFAVGGQNGLGGLDNVEYYDIKLNEWKMVSPMPWKGVTVKCAAVGSIVYVLAGFQGVGRLGHILEYNTETDKWVANSKVRAFPVTSCLICVVDTCGANEETLET

Variants of: B1
Conditions: with cul3_human CUL3, Q13618

Row | Variant | effect of a mutation on the interaction
1 | MAASGVEKSSKKKTEKKLAAREEAKLLAGFMGVMNNMRKQKTLCDVILMVQERKIPAHRVVLAAASHFFNLMFTTNMLESKSFEVELKDAEPDIIEQLVEFAYTARISVNSNNVQSLLDAANQYQIEPVKKMCVDFLKEQVDASNCLGISVLTECLDCPELKATADDFIHQHFTEVYKTDEFLQLDVKRVTHLLNQDTLTVRAEDQVYDAAVRWLKYDEPNRQPFMVDILAKVRFPLISKNFLSKTVQAEPLIQDNPECLKMVISGMRYHLLSPEDREELVDGTRPRRKKHDYRIALFGGSQPQSCRYFNPKDYSWTDIRCPFEKRRDAACVFWDNVVYILGGSQLFPIKRMDCYNVVKDSWYSKLGPPTPRDSLAACAAEGKIYTSGGSEVGNSALYLFECYDTRTESWHTKPSMLTQRCSHGMVEANGLIYVCGGSLGNNVSGRVLNSCEVYDPATETWTELCPMIEARKNHGLVFVKDKIFAVGGQNGLGGLDNVEYYDIKLNEWKMVSPMPWKGVTVKCAAVGSIVYVLAGFQGVGRLGHILEYNTETDKWVANSKVRAFPVTSCLICVVDTCGANEETLET [A153T] | disrupting interaction
2 | MAASGVEKSSKKKTEKKLAAREEAKLLAGFMGVMNNMRKQKTLCDVILMVQERKIPAHRVVLAAASHFFNLMFTTNMLESKSFEVELKDAEPDIIEQLVEFAYTARISVNSNNVQSLLDAANQYQIEPVKKMCVDFLKEQVDASNCLGISVLVECLDCPELKATADDFIHQHFTEVYKTDEFLQLDVKRVTHLLNQDTLTVRAEDQVYDAAVRWLKYDEPNRQPFMVDILAKVRFPLISKNFLSKTVQAEPLIQDNPECLKMVISGMRYHLLSPEDREELVDGTRPRRKKHDYRIALFGGSQPQSCRYFNPKDYSWTDIRCPFEKRRDAACVFWDNVVYILGGSQLFPIKRMDCYNVVKDSWYSKLGPPTPRDSLAACAAEGKIYTSGGSEVGNSALYLFECYDTRTESWHTKPSMLTQRCSHGMVEANGLIYVCGGSLGNNVSGRVLNSCEVYDPATETWTELCPMIEARKNHGLVFVKDKIFAVGGQNGLGGLDNVEYYDIKLNEWKMVSPMPWKGVTVKCAAVGSIVYVLAGFQGVGRLGHILEYNTETDKWVANSKVRAFPVTSCLICVVDTCGANEETLET [A153V] | disrupting interaction

Variants of: B1
Conditions: with cul3_human CUL3, Q13618
Remark: another data set of the same source

Row | Variant | effect of a mutation on the interaction
3 | MAASGVEKSSKKKTEKKLAAREEAKLLAGFMGVMNNMRKQKTLCDVILMVQERKIPAHRVVLAAASHFFNLMFTTNMLESKSFEVELKDAEPDIIEQLVEFAYTARISVNSNNVQSLLDAANQYQIEPVKKMCVDFLKEQVDASNCLGISVLVECLDCPELKATADDFIHQHFTEVYKTDEFLQLDVKRVTHLLNQDTLTVRAEDQVYDAAVRWLKYDEPNRQPFMVDILAKVRFPLISKNFLSKTVQAEPLIQDNPECLKMVISGMRYHLLSPEDREELVDGTRPRRKKHDYRIALFGGSQPQSCRYFNPKDYSWTDIRCPFEKRRDAACVFWDNVVYILGGSQLFPIKRMDCYNVVKDSWYSKLGPPTPRDSLAACAAEGKIYTSGGSEVGNSALYLFECYDTRTESWHTKPSMLTQRCSHGMVEANGLIYVCGGSLGNNVSGRVLNSCEVYDPATETWTELCPMIEARKNHGLVFVKDKIFAVGGQNGLGGLDNVEYYDIKLNEWKMVSPMPWKGVTVKCAAVGSIVYVLAGFQGVGRLGHILEYNTETDKWVANSKVRAFPVTSCLICVVDTCGANEETLET [A153V] | decreasing interaction
